Results from paper PMC8428749.
pKd: −log10 of the molar value.

Biological target: human C4b binding protein (C4BP) (human) (UniProt P04003)
Assay: BLI; Octet RED96; purified C4BP immobilised on amine-reactive (AR2G) sensor; P5 loop peptides 1.25-50 µM in PBS; 30°C; 1:1 binding fit

Chain of UniProt P04003 (P04003 49-597, chain 1 of 2): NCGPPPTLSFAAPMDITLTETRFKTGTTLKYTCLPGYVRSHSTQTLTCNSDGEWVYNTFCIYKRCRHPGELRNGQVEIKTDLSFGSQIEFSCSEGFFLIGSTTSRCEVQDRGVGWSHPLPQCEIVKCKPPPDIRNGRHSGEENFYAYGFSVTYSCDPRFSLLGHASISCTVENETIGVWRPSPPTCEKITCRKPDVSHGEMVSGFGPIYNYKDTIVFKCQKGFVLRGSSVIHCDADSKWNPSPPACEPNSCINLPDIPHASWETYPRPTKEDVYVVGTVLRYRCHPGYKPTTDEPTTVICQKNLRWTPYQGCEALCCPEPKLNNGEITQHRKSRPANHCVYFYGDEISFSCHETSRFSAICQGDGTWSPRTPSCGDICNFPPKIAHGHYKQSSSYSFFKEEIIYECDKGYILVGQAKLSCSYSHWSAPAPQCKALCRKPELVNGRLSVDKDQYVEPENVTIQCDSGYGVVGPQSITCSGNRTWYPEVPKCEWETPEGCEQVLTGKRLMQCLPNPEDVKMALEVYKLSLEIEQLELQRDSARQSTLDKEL
Chain of UniProt P04003 (P20851 18-252, chain 2 of 2, further chain): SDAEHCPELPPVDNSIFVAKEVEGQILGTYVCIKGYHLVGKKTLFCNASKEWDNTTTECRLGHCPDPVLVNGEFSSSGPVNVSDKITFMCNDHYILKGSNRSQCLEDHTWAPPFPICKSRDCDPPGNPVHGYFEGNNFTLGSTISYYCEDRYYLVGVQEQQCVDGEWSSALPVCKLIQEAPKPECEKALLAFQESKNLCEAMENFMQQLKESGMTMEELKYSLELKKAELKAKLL

Substance	pKd
synthetic peptide of outer surface loop 2 of P5 from NTHi KR271	4.14
synthetic peptide of outer surface loop 2 of P5 from NTHi 3655	5.00
